From PMC4486081 (Oncogene, 2015)

Biological target: Recombinant full length FAK (focal adhesion kinase), GST-tagged, phospho-Y397 (UniProt Q05397 1-1052, phosphotyrosine at 397)
Experiment: co-IP

Chain of Recombinant full length FAK (focal adhesion kinase), GST-tagged, phospho-Y397 (Q05397 whole entry): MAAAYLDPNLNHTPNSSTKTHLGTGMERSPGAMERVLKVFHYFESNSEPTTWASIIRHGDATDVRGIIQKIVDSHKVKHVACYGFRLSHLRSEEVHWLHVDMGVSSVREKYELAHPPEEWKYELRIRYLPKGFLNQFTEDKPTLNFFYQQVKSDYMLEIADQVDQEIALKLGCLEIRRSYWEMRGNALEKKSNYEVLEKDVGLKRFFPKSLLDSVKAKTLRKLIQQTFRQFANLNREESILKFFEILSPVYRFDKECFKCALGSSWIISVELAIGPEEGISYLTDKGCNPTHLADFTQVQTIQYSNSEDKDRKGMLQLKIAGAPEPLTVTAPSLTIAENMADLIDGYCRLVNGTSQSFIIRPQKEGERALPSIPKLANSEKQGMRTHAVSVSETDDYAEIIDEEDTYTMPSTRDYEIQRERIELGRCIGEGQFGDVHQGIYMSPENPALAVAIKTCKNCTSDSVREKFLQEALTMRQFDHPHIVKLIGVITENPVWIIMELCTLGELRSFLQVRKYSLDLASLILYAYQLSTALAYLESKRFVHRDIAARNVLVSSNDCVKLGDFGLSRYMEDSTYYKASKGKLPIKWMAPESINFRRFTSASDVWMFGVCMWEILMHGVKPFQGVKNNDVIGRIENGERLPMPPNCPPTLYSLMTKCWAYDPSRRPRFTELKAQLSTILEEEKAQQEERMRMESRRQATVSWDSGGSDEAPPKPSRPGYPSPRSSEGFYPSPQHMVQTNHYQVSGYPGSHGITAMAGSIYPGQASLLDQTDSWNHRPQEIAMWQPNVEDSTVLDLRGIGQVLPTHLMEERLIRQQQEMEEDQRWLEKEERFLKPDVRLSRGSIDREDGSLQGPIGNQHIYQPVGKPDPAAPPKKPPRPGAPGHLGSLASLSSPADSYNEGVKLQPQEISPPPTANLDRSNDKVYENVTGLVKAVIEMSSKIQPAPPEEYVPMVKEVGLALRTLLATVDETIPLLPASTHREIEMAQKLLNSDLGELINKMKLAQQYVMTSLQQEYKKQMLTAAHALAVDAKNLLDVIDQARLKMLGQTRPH

- binding result: binds
B1: Recombinant active PKM2 (pyruvate kinase M2), 1-531 aa with N-terminal His-tag (enzyme)
chain: not shown
